Columns and labels:
[1] = biological target: T1, soluble human TREM2 (sTREM2) (human, UniProt Q9NZC2 19-157); test: sandwich ELISA: test antibody coated as capture, sTREM2 from BMDM culture supernatant, biotinylated 3.17A9 as detection
T1 construct: also called soluble TREM2; TREM2 ectodomain
T1 sequence: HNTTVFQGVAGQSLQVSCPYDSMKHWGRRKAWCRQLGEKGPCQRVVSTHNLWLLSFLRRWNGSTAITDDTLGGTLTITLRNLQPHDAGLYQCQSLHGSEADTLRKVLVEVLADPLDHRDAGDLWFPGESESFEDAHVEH
Text: For example, as shown in an Example 11 herein, the human TREM2 ELISA assay measured binding of antibodies to sTREM2 by coating onto plate wells the antibody to be tested as capture reagents and with biotinylated IgV-reactive monoclonal antibody 3.17A9 used as the detection reagent. Control antibody 1.16B8 was used as a positive control antibody to establish the standard for sTREM2 binding.
A human TREM2 ELISA assay was used to measure binding of more than forty antibodies to soluble TREM2 (sTREM2) as follows: test anti-hTREM2 antibodies were coated onto plate wells as capture reagents and a biotinylated IgV-reactive monoclonal antibody, 3.17A9, was used as the detection reagent. Antibody 1.16B8 was used as a control antibody to establish the standard for sTREM2 binding. Plates coated with test or control antibody were incubated with diluted culture supernatant from bone marrow-derived macrophage (BMDM) cultures from transgenic mice expressing hTREM2. sTREM2 is constitutively produced by the BMDM cultures expressing hTREM2 and shed into the culture supernatant. Measurements were recorded at 450 nm for detection and 570 nm for background. The 3.17A9/1.16B8 antibody pair was selected over reagents provided in the R&D Systems kit as the commercial reagents were not compatible with sTREM2 detection of some of the antibodies tested. […]

human TREM2 on cells [2] = biological target: T2, human TREM2 on cells (human, UniProt Q9NZC2 19-230); test: cell-based or functional assay
T2 sequence: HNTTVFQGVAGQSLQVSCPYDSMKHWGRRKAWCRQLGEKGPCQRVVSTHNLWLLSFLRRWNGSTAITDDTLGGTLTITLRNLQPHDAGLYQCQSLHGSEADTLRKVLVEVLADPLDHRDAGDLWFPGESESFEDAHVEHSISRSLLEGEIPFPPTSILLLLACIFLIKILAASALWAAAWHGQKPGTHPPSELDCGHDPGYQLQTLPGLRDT

human TREM2 on cells [3] = biological target: T2, human TREM2 on cells; test: cell-based or functional assay; remark: listed apart in the source
[4] = biological target: T3, soluble monomeric human TREM2 (human, UniProt Q9NZC2 19-174, limits assumed); test: SPR (Biacore T200), 37 C; IgG on anti-CH1 chip, soluble monomeric TREM2
T3 construct: Not the same as shed sTREM2; also called soluble monomeric TREM2
T3 sequence: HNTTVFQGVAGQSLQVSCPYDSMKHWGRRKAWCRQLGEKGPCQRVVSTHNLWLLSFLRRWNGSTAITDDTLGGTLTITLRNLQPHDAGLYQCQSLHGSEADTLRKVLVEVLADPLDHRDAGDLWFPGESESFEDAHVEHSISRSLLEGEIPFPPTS

- binding result [1]: no binding
- EC50, average X04 plaque intensity, human iPSC-derived microglia plaque assay (FIG. 24C) (human TREM2 on cells [2]): 320 nM
- EC50, total Abeta plaque intensity, human iPSC-derived microglia plaque assay (FIG. 24B) (human TREM2 on cells [2]): 330 nM
- phospho-SYK/total SYK relative to anti-gD control, iPSC-derived microglia, 1 hour (human TREM2 on cells [2]): 2 fold
- phospho-SYK/total SYK relative to anti-gD control, iPSC-derived microglia, 4 hours (human TREM2 on cells [2]): > 10 fold
- EC50, Jurkat NFAT luciferase reporter cells (human TREM2 on cells [3]): 0.0245 µg/mL
- IC50, TREM2 shedding inhibition in Jurkat-NFAT reporter cells (sTREM2 ELISA) (human TREM2 on cells [3]): 0.162 µg/mL
- Kd [4]: 0.016 nM
- koff [4]: 3.5e-05 s⁻¹
- kon [4]: 2.3e+06 M⁻¹ s⁻¹
B1: hPara.09.v2 hIgG1 N297G (antibody, V domains shown)
VH: EVQLVESGGGLVQPGGSLKLSCATSGFPFSNVWLHWVRQASGKGPEWVAHIKAKSDNYATYYAESVKGRFTISRDDSKNTVYLQMNSLKTEDTAVYYCTDILEYWGQGTLVTVSS
VL: DVVMTQSPLSLPVTPGEPASISCRSSRSLLTSKGITSLYWYLQKPGQSPQLLIYRMSNLASGIPDRFSGSGSGTDFTLKISRVEAEDVGVYYCAQFLVYPYTFGQGTKVEIKR
notes: also called hPara.09.H5.hIgG1.N297G
- EC50, survival of iPSC-derived microglia (FIG. 23E) (human TREM2 on cells [2]): 0.065 nM
